Results taken from US20200317768A1 (published 2020).
Substitutions are numbered along the chain they refer to. Numbers in names are those of the source.

Key:
[1] = target: T1, human FcγRIIb constitutively expressed on MDCK cells (human, UniProt P31994 43-310); assay: cell-based or functional assay
T1 sequence (looked up): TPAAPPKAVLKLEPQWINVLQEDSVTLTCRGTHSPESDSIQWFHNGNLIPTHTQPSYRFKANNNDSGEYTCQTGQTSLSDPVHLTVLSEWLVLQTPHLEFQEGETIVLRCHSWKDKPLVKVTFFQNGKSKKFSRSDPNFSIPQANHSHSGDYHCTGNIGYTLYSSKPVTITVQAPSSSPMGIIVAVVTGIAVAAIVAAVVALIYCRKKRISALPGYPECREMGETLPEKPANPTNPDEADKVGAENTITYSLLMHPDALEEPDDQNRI

[2] = target: T2, cynomolgus monkey FcγRIIa2 extracellular domain, C-terminal His-tag (cynomolgus monkey); assay: SPR (BIACORE) 25C, antibody captured, FcgR as analyte
T2 construct: also called cyno FcγRIIa2; FcgRIIa2
T2 chain: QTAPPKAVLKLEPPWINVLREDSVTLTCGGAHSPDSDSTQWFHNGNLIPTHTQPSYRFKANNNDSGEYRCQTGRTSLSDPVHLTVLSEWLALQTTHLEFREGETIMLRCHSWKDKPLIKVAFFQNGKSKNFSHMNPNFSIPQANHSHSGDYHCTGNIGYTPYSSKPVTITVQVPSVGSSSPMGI
Procedure: (§1) The kinetic analysis of interactions between these antibodies and FcγR was carried out using BIACORE® T200 or BIACORE® 4000 (GE Healthcare). HBS-EP+ (GE Healthcare) was used as the running buffer, and the measurement temperature was set to 25° C. A chip produced by immobilizing Protein A. Protein A/G or mouse anti-human IgG kappa light chain (BD Biosciences) onto a Series S Sensor Chip CM4 or CM5 (GE Healthcare) by the amine-coupling method was used. […] After the measurement, the antibody captured on the chip was washed off by allowing reaction with 10 mM glycine-HCl, pH1.5 and 25 mM NaOH so that the chip was regenerated and used repeatedly. The sensorgrams obtained as measurement results were analyzed by the 1:1 Langmuir binding model using the BIACORE® Evaluation Software to calculate the binding rate constant ka (L/mol/s) and dissociation rate constant kd (l/s), and the dissociation constant KD (mol/L) was calculated from these values. […] Regarding such interactions, KD values were calculated using the following 1:1 binding model described in BIACORE® T100 Software Handbook BR1006-48 Edition AE.

[3] = target: T3, cynomolgus monkey FcγRIIa1 extracellular domain, C-terminal His-tag (cynomolgus monkey); assay: as above
T3 construct: also called cyno FcγRIIa1; FcgRIIa1
T3 chain: T2 chain with T95P, A121T, K127I, S128A, N130K, N135D, Q142R
Procedure: as §1

[4] = target: T4, cynomolgus monkey FcγRIIb extracellular domain, C-terminal His-tag (cynomolgus monkey); assay: as above
T4 construct: also called cyno FcγRIIb; cynoFcγRIIb
T4 chain: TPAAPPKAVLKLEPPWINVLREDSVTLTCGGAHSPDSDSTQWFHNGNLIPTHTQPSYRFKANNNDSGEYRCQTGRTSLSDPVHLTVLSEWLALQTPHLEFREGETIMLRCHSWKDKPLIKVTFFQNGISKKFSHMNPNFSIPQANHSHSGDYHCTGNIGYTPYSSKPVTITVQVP
Procedure: as §1

[5] = target: T5, human FcγRIIb extracellular domain, C-terminal His-tag (human, UniProt P31994 43-217); assay: as above
T5 construct: also called FcgRIIb (human)
T5 sequence: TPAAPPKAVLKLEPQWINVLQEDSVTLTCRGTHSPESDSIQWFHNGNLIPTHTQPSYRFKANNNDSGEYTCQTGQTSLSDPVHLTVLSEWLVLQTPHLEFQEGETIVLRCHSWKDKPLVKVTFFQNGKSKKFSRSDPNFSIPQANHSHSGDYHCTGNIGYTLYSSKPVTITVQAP
Procedure: as §1

Mouse latent myostatin = target: T6, Mouse latent myostatin (mouse, UniProt O08689 26-267; O08689 268-376); assay: SPR 37C; KD pH 5.8 / KD pH 7.4
T6 construct: Latent form = complex of two propeptides and the mature dimer
T6 sequence 1: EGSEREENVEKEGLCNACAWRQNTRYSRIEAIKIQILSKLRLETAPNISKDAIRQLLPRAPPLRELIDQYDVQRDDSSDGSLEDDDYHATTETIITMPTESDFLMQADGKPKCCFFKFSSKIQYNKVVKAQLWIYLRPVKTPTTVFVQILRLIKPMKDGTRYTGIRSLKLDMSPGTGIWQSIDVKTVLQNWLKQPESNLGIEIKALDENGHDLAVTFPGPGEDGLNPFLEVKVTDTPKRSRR
T6 sequence 2: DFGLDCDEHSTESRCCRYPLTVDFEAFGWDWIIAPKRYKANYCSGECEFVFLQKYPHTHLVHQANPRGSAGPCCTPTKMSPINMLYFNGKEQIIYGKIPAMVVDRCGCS
Procedure: (§2) ProA/G (Pierce) was immobilized onto all flow cells of a CM4 chip using an amine coupling kit (GE Healthcare). All antibodies and analytes were prepared in ACES pH7.4 or pH5.8 buffer containing 20 mM ACES, 150 mM NaCl, 1.2 mM CaCl₂, 0.05% TWEEN®) 20, 0.005% NaN₃. […] Human, cyno, and mouse latent myostatin was injected at 3.125 to 50 nM prepared by two-fold serial dilution, followed by dissociation. The sensor surface was regenerated each cycle with 10 mM Glycine HCl pH1.5. Binding affinity was determined by processing and fitting the data to a 1:1 binding model using BIACORE® T200 Evaluation software, version 2.0 (GE Healthcare).

Human latent myostatin = target: T7, Human latent myostatin (human, UniProt O14793 25-266; O14793 267-375); assay: SPR 37C; KD pH 5.8 / KD pH 7.4
T7 construct: also called human myostatin latent form
T7 sequence 1: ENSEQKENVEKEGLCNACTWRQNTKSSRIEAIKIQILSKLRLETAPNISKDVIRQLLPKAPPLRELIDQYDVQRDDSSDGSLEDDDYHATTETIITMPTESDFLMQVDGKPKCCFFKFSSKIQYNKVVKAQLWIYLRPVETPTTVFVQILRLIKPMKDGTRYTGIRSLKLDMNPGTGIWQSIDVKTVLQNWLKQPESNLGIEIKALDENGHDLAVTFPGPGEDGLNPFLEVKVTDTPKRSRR
T7 sequence 2: T6 sequence 2
Procedure: as §2

B1: MS1032LO06-SG1 (M103205H795-SG1/M103202L889-SK1) (antibody, human IgG1, kappa)
heavy: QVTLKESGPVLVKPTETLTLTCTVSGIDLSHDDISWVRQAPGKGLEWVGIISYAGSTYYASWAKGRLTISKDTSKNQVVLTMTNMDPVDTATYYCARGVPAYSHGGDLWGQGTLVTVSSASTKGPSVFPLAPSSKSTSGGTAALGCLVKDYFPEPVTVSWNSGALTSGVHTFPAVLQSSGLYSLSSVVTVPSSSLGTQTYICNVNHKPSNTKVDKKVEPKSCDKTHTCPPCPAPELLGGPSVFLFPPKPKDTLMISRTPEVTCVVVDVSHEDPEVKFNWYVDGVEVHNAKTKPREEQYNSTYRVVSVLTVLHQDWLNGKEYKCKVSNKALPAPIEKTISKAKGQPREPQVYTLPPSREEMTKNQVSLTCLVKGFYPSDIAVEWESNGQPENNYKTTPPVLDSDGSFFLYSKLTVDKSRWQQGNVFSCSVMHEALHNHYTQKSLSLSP
light: DIVMTQSPATLSLSPGERATLSCTSSQSVYHANWLSWFQQKPGQPPKLLIYWASTLAYGVPSRFSGSGSGTDFTLTISSLQPEDAATYYCAGGYGGGRYAFGQGTKVEIKRTVAAPSVFIFPPSDEQLKSGTASVVCLLNNFYPREAKVQWKVDNALQSGNSQESVTEQDSKDSTYSLSSTLTLSKADYEKHKVYACEVTHQGLSSPVTKSFNRGEC
notes: Anti-latent myostatin antibody
[1]
  celluar uptake: 1 relative to SG1 (=1.00)

B2: MS_M103205H795-SG1/M103202L889-SK1 (antibody, human IgG1, kappa)
heavy: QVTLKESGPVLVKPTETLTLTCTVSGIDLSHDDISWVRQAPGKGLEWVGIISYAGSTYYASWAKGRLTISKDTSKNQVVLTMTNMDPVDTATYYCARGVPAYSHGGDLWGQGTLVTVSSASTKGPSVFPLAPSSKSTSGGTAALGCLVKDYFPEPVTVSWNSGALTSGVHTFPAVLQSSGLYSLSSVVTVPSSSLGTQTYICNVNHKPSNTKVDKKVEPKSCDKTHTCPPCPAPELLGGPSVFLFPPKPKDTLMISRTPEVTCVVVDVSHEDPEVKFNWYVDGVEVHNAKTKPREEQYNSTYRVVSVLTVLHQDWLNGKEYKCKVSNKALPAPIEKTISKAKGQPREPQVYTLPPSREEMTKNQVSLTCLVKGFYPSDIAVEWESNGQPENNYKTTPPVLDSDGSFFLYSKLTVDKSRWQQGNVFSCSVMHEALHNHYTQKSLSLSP
light: B1 light
notes: also called MS1032LO06-SG1
[2]
  Kd: 5.2 µM
[3]
  Kd: 4.2 µM
[4]
  Kd: 1.7 µM
[5]
  Kd: 4.7 µM
Mouse latent myostatin
  ratio of KD at pH 5.8/pH 7.4: 76
Human latent myostatin
  ratio of KD at pH 5.8/pH 7.4: 119

B3: M103205H795-MY009/M103202L889-SK1 (antibody, human IgG1, kappa)
heavy: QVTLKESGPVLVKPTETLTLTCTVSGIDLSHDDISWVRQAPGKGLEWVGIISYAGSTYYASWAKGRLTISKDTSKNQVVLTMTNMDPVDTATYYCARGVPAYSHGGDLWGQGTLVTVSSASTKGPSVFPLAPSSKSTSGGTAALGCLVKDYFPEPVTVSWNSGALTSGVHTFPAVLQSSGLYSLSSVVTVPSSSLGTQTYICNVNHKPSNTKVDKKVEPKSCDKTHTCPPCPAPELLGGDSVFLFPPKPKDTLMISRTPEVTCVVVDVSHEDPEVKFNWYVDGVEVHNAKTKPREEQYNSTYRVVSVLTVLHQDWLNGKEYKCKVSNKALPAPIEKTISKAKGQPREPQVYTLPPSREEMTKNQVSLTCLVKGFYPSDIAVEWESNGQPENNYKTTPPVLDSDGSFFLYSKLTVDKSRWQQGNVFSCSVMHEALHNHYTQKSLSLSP
light: B1 light
notes: CH MY009 = SG1 with P238D (EU numbering); also called MS1032LO06-MY009
[2]
  Kd: 26 µM
[3]
  Kd: 25 µM
[4]
  Kd: 4.9 µM
[5]
  Kd: 1.4 µM
